Measured values: patent US20240336909A1 (HARPOON THERAPEUTICS, published 2024)

T1: human EpCAM protein (human, UniProt P16422 24-265)
T1 construct: biotinylated in the Octet assays; also called hu EpCAM; biotinylated human EpCAM protein
T1 sequence (looked up): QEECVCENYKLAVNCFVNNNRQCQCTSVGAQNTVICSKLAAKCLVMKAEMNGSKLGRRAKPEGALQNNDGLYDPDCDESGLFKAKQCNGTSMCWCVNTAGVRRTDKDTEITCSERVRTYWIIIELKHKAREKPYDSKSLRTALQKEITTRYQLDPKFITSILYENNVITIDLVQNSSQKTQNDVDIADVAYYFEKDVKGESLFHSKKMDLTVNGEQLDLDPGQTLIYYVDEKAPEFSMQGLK


How the values were obtained:
[1] = target: T1, human EpCAM protein; test: colorimetric ELISA
Description: (§1) Llamas were immunized with purified EpCAM protein expressed in Expi293 cells. A phage display library for expression of heavy variable antibody domains was constructed from circulating B cells. See van der Linden, de Geus, Stok, Bos,van Wassenaar, Verrips, and Frenken. 2000. J Immunol Methods 240:185-195. Phage clones were screened for binding to EpCAM by expressing anti-EpCAM proteins in E coli, preparing periplasmic extracts, and proteins were screened for human and cynomolgus EpCAM binding activity using a colorimetric ELISA.

[2] = target: T2, cynomolgus EpCAM protein (cynomolgus monkey); test: colorimetric ELISA
T2 construct: biotinylated in the Octet assays; also called cy EpCAM; cynomolgus monkey EpCAM
Description: as §1

T2 sequence (Q1WER1 24-265): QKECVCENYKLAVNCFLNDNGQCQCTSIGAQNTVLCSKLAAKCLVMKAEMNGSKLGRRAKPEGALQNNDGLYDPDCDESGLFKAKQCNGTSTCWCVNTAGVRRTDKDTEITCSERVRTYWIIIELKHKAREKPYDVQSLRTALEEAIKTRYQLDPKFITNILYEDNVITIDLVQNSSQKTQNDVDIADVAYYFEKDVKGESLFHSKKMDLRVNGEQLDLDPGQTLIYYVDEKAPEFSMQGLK

Row | ELISA absorbance [1] [absorbance] | Human EpCAM/Control [1] [ratio] | Cynomolgus EpCAM/Control [2] [ratio] | ELISA absorbance [2] [absorbance] | Binder
1 | 2.9 | 17 | 23 | 4 | Llama anti-EpCAM single domain antibody EPL13 (VHH, E. coli periplasmic extract) VHH: QVQLQESGGGLVQPGGSLRLSCAASGFAFGNHWMYWYRQAPGRGRELVASISSGGSTNYVDSVKGRFTISRDNARNTVYLQMYSLKPEDTAVYYCGTSDNWGQGTQVTVSS
2 | 2 | 20 | 29 | 3.1 | Llama anti-EpCAM single domain antibody EPL129 (VHH, E. coli periplasmic extract) VHH: QVQLQESGGGLVQAGGSLRLSCAASGFAFGNHWMYWYRQAPGRGRELVASISSGGSTNYVDSVKGRFTISRDNARNTVYLQMYSLRPEDTAVYYCGTSDNWGQGTQVTVSS
3 | 3.2 | 5 | 4 | 2.3 | Llama anti-EpCAM single domain antibody EPL120 (VHH, E. coli periplasmic extract) VHH: QVQLQESGGGLVQAGGSLRLSCAASGFIFRAASISWYRQSPGNERELVATINSGGFTNYADSVLGRFTISRDNAKNTGYLQMNSLKPEDTAVYFCAATFLRSDGQPPIWGQGTQVTVSS
4 | 2.9 | 6 | 4 | 2.2 | Llama anti-EpCAM single domain antibody EPL20 (VHH, E. coli periplasmic extract) VHH: QVQLQESGGGLVQAGGSLKLSCAASGNVFRAATMAWYRQAPEKQREMVATIASGGTTNYADFVKGRFTISRDNAKNTVYLQMNTLKPEDTAVYYCNAGYLTSLGPKNYWGQGTQVTVSS
5 | 3.5 | 8 | 8 | 3.5 | Llama anti-EpCAM single domain antibody EPL125 (VHH, E. coli periplasmic extract) VHH: QVQLQESGGGLVQAGGSLRLSCAASGNVFRAATMAWYRQVPEKQREMVATIASGGTTNYADFVKGRFTISRDNAKNTVYLQMNTLKPEDTAVYYCNALYLTSLGPKSYWGQGTQVTVSS
6 | 0.4 | 5 | 7 | 0.6 | Llama anti-EpCAM single domain antibody EPL55 (VHH, E. coli periplasmic extract) VHH: QVQLQESGGGLVQAGGSLRLSCAASGDTFLRYAMGWFRQAPGKEREFVAAITWNGGNTDYAGSLKGRFTISRDNTKNTVYLQMNSLKPEDTAVYYCAADLTFGLASSHYQYDYWGQGTQVTVSS
7 | 1.7 | 14 | 27 | 3.4 | Llama anti-EpCAM single domain antibody EPL57 (VHH, E. coli periplasmic extract) VHH: QVQLQESGGGLVHTGGSLRLSCAFSGDTFLRYAMGWFRQAPGKEREFVAAITWNGGNTDYADSLKGRFTISRDNTKNTVYLQMNSLRPEDTAVYYCAADLTFGLASSHYQYDYWGQGTQVTVSS
8 | 0.9 | 9 | 13 | 1.3 | Llama anti-EpCAM single domain antibody EPL136 (VHH, E. coli periplasmic extract) VHH: QVQLQESGGGLVQPGGSLRLSCAASGDTFLRYAMGWFRQAPGKEREFVAAITWNGGNTDYAGSLKGRFTISRDNTKNTVYLQMNSLKPEDTAVYYCAADLTFGLASSHYQYDYWGQGTQVTVSS
9 | 0.7 | 8 | 35 | 3.2 | Llama anti-EpCAM single domain antibody EPL15 (VHH, E. coli periplasmic extract) VHH: QVQLQESGGGSVLAGGSLRLSCAASGFTFSSYYMSWVRQAPGKGLEWVSGIHYTGDWTNYADSVKGRFTISRDNAKNELYLEMNNLKPEDTAVYYCARGSDKGQGTQVTVSS
10 | 0.9 | 10 | 36 | 3.1 | Llama anti-EpCAM single domain antibody EPL34 (VHH, E. coli periplasmic extract) VHH: QVQLQESGGGSVQAGGSLRLSCAASGFTFSSYYMSWVRQAPGKGLEWVSGIHYTGDWTNYADSVKGRFTISRDNAKNELYLEMNNLKPEDTAVYYCARGSDKGQGTQVTVSS
11 | 0.8 | 8 | 31 | 3 | Llama anti-EpCAM single domain antibody EPL86 (VHH, E. coli periplasmic extract) VHH: QVQLQESGGGLVQPGGSLRLSCAASGFTFSDWAMSWVRQAPGKGLEWVSGIHYGDHTTHYADFVKGRFTISRDDAKNTLYLQMNSLKPEDTAVYYCARGSTKGQGTQVTVSS
12 | 3.1 | 31 | 21 | 2.2 | Llama anti-EpCAM single domain antibody EPL153 (VHH, E. coli periplasmic extract) VHH: QVQLQESGGGLVQPGGSLRLSCAASGFTFSDWAMSWVRQAPGKGLEWVSSIHYGDHTTHYADFVKGRFTISRDDAKNTLYLQMNSLKPEDTAVYYCEKGTTRGQGTQVTVSS
